Reference: the supplement of paper PMC7877785
± gives the uncertainty stated by the source.

Test: self-splicing fitness, log relative to wild type (ln ratio); higher = more splicing; Tetrahymena group I intron in knt gene, E. coli kanamycin selection, DiMSum; sequences stand for … in CUCUCU…GGAGGGAAAAGUUAUCAGGCAUGCACCUGGUAGCUAGUCUUUAAACCAAUAGAUUGCAUCGGUUUAAAAGGCAAGACCGUCAAAUUGCGGGAAAGGGGUCAACAGCCGUUCAGUACCAAGUCUCAGGGGAAACUUUGAGAUGGCCUUGCAAAGGGUAUGGUAAUAAGCUGACGGACAUGGUCCUAACCACGCAGCCAAGUCCUAAGUCAACAGAUCUUCUGUUGAUAUGGAUGCAGUUCACAGACUAAAUGUCGGUCGGGGAAGAUGUAUUCUUCUCAUAAGAUAUAGUCGGACCUCUCCUUAAUGGGAGCUAGCGGAUGAAGUGAUGCAACACUGGAGCCGCUGGGAACUAAUUUGUAUGCGAAAGUAUAUUGAUUAGUUUUGGAGUACUCGUGGUCG
Procedure, shortened: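 The eight P1ex-region nucleotides of an intron in the knt kanamycin-resistance gene on pET-22b(+) were all randomised and the library put into E. coli BL21(DE3). Six replicate transformations were grown overnight at 37°C or 30°C on LB agar with or without 25 μg/mL kanamycin, together with 100 μg/mL carbenicillin, 50 μM IPTG and 0.2% rhamnose. Colonies were pooled and amplicon-sequenced on an Illumina HiSeq 2500. Fitness from DiMSum is the error-weighted combination of wild-type-normalised replicate fold changes, kanamycin over none.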

Row | Sequence | self-splicing fitness (ln) (30 °C) | self-splicing fitness (ln) (37 °C)
1 | AUAAAGCAAUAUUACGUUCC | -0.979 ± 0.13 | -0.885 ± 0.18
2 | AUAAAGCAAUAUUACGUUUA | -0.935 ± 0.065 | -0.201 ± 0.08
3 | AUACAGCAAUAUUACGAGAG | -3.39 ± 0.14 | -2.1 ± 0.088
4 | AUACAGCAAUAUUACGAUAC | -2.01 ± 0.075 | -1.08 ± 0.088
5 | AUACAGCAAUAUUACGAUCU | -0.478 ± 0.077 | -0.0165 ± 0.087
6 | AUACAGCAAUAUUACGAUGA | -1.42 ± 0.11 | -0.0115 ± 0.1
7 | AUACAGCAAUAUUACGCGCG | -0.869 ± 0.1 | -1.07 ± 0.093
8 | AUACAGCAAUAUUACGCUUG | -1.35 ± 0.08 | -0.94 ± 0.1
9 | AUACAGCAAUAUUACGGAAA | -3.24 ± 0.2 | -2.16 ± 0.17
10 | AUACAGCAAUAUUACGGCAU | -0.388 ± 0.083 | 0.525 ± 0.099
11 | AUACAGCAAUAUUACGGCGC | -0.801 ± 0.1 | 0.447 ± 0.15
12 | AUACAGCAAUAUUACGGCGG | -1.19 ± 0.095 | -0.617 ± 0.12
13 | AUACAGCAAUAUUACGGGCC | -2.7 ± 0.17 | -2.82 ± 0.44
14 | AUACAGCAAUAUUACGGGUC | -3.7 ± 0.21 | -2.48 ± 0.19
15 | AUACAGCAAUAUUACGUUUU | -2.19 ± 0.12 | -2.09 ± 0.15
16 | AUAGAGCAAUAUUACGAAUU | -0.889 ± 0.15 | -0.429 ± 0.23
17 | AUAGAGCAAUAUUACGACCG | -2.9 ± 0.27 | -1.57 ± 0.43
18 | AUAGAGCAAUAUUACGACGU | 0.0144 ± 0.077 | 0.556 ± 0.099
19 | AUAGAGCAAUAUUACGAGGG | -3.05 ± 0.25 | -1.56 ± 0.26
20 | AUAGAGCAAUAUUACGAUCA | -0.545 ± 0.098 | -0.894 ± 0.15
21 | AUAGAGCAAUAUUACGAUUC | -2.37 ± 0.28 | -1.08 ± 0.33
22 | AUAGAGCAAUAUUACGAUUU | -0.251 ± 0.081 | 0.0148 ± 0.1
23 | AUAGAGCAAUAUUACGCAGA | -2.57 ± 0.21 | -1.84 ± 0.16
24 | AUAGAGCAAUAUUACGCAGC | -2.33 ± 0.45 | –
25 | AUAGAGCAAUAUUACGCAUC | -3.91 ± 0.31 | -2.11 ± 0.25

Row | Sequence | self-splicing fitness (ln) (30 °C) | self-splicing fitness (ln) (37 °C)
26 | AUAGAGCAAUAUUACGCAUG | -1.85 ± 0.16 | -1.42 ± 0.23
27 | AUAGAGCAAUAUUACGCCGU | -0.866 ± 0.21 | 0.511 ± 0.26
28 | AUAGAGCAAUAUUACGCGCG | -1.47 ± 0.2 | -0.725 ± 0.23
29 | AUAGAGCAAUAUUACGCGCU | -2.64 ± 0.29 | -0.717 ± 0.24
30 | AUAGAGCAAUAUUACGCGGA | -1.35 ± 0.092 | -1.48 ± 0.11
31 | AUAGAGCAAUAUUACGCGUC | -1.8 ± 0.39 | -1.82 ± 0.26
32 | AUAGAGCAAUAUUACGCUAA | -1.33 ± 0.13 | -0.315 ± 0.18
33 | AUAGAGCAAUAUUACGCUGA | -1.26 ± 0.15 | -1.03 ± 0.17
34 | AUAGAGCAAUAUUACGGAAC | -3.66 ± 0.27 | -1.92 ± 0.24
35 | AUAGAGCAAUAUUACGGCAA | -1.97 ± 0.21 | -0.382 ± 0.17
36 | AUAGAGCAAUAUUACGUAGA | -3.41 ± 0.25 | -2.52 ± 0.24
37 | AUAGAGCAAUAUUACGUAGG | -2.32 ± 0.18 | -2.65 ± 0.38
38 | AUAGAGCAAUAUUACGUAUC | -2.94 ± 0.37 | -2.16 ± 0.43
39 | AUAGAGCAAUAUUACGUGGG | -3.77 ± 0.31 | -1.79 ± 0.32
40 | AUAGAGCAAUAUUACGUUAA | -2.32 ± 0.19 | -1.76 ± 0.23
41 | AUAGAGCAAUAUUACGUUCU | -1.35 ± 0.15 | 0.267 ± 0.17
42 | AUAUAGCAAUAUUACGAACG | -1.56 ± 0.18 | -0.154 ± 0.2
43 | AUAUAGCAAUAUUACGAAGC | -2.96 ± 0.31 | –
44 | AUAUAGCAAUAUUACGAAGU | -3.37 ± 0.3 | -1.63 ± 0.36
45 | AUAUAGCAAUAUUACGAAUA | -1.36 ± 0.32 | –
46 | AUAUAGCAAUAUUACGACGG | -2.5 ± 0.17 | -2.5 ± 0.22
47 | AUAUAGCAAUAUUACGAUGU | 0.361 ± 0.18 | -0.83 ± 0.23
48 | AUAUAGCAAUAUUACGCGAA | – | -1.32 ± 0.23
49 | AUAUAGCAAUAUUACGCGAG | -2.35 ± 0.13 | -1.09 ± 0.13
50 | AUAUAGCAAUAUUACGCGAU | -2.69 ± 0.33 | -1.57 ± 0.49

Row | Sequence | self-splicing fitness (ln) (30 °C) | self-splicing fitness (ln) (37 °C)
51 | AUAUAGCAAUAUUACGCGGG | -2.72 ± 0.38 | -1.33 ± 0.22
52 | AUAUAGCAAUAUUACGCGGU | -2.75 ± 0.18 | -2.28 ± 0.19
53 | AUAUAGCAAUAUUACGCUGU | -2.9 ± 0.22 | -2.32 ± 0.21
54 | AUAUAGCAAUAUUACGGAAU | -1.92 ± 0.21 | 0.227 ± 0.23
55 | AUAUAGCAAUAUUACGGACA | -1.48 ± 0.22 | -1.2 ± 0.23
56 | AUAUAGCAAUAUUACGGAGG | -3.24 ± 0.45 | –
57 | AUAUAGCAAUAUUACGGCCG | -1.15 ± 0.2 | -0.566 ± 0.25
58 | AUAUAGCAAUAUUACGGGAC | -2.51 ± 0.48 | -1.82 ± 0.48
59 | AUAUAGCAAUAUUACGGGAG | -4.22 ± 0.39 | -1.59 ± 0.24
60 | AUAUAGCAAUAUUACGGGCG | -1.47 ± 0.17 | -0.59 ± 0.15
61 | AUAUAGCAAUAUUACGGUCA | -1.16 ± 0.23 | -0.947 ± 0.19
62 | AUAUAGCAAUAUUACGGUCC | -2.8 ± 0.25 | -1.44 ± 0.33
63 | AUAUAGCAAUAUUACGGUCG | -1.44 ± 0.13 | -1.26 ± 0.17
64 | AUAUAGCAAUAUUACGGUCU | -0.211 ± 0.076 | 0.0619 ± 0.1
65 | AUAUAGCAAUAUUACGUCCG | – | -1.64 ± 0.43
66 | AUAUAGCAAUAUUACGUCGC | -2.48 ± 0.27 | -1.31 ± 0.37
67 | AUAUAGCAAUAUUACGUUCU | -1.47 ± 0.18 | -0.302 ± 0.21
68 | AUAUAGCAAUAUUACGUUGA | -2.63 ± 0.22 | -2.53 ± 0.26
69 | AUAUAGCAAUAUUACGUUUC | -2.54 ± 0.27 | -1.45 ± 0.3
70 | AUCAAGCAAUAUUACGAGCG | -1.92 ± 0.12 | -1.21 ± 0.14
71 | AUCAAGCAAUAUUACGAUUC | -2.14 ± 0.12 | -1.25 ± 0.16
72 | AUCAAGCAAUAUUACGCAAA | -2.96 ± 0.2 | -1.67 ± 0.15
73 | AUCAAGCAAUAUUACGCAGC | -2.12 ± 0.2 | -1.8 ± 0.25
74 | AUCAAGCAAUAUUACGCAUA | -1.94 ± 0.099 | -0.751 ± 0.084
75 | AUCAAGCAAUAUUACGCAUC | -3.97 ± 0.24 | -1.64 ± 0.14

Row | Sequence | self-splicing fitness (ln) (30 °C) | self-splicing fitness (ln) (37 °C)
76 | AUCAAGCAAUAUUACGCUCG | -0.803 ± 0.091 | -0.236 ± 0.11
77 | AUCAAGCAAUAUUACGGGAU | -2.33 ± 0.097 | -2.12 ± 0.13
78 | AUCAAGCAAUAUUACGGGUA | -2.04 ± 0.11 | -1.16 ± 0.091
79 | AUCAAGCAAUAUUACGGGUC | -3.33 ± 0.29 | -2.19 ± 0.27
80 | AUCAAGCAAUAUUACGGUAU | -1.93 ± 0.063 | -0.833 ± 0.077
81 | AUCAAGCAAUAUUACGGUCG | -2.22 ± 0.12 | -2.03 ± 0.14
82 | AUCAAGCAAUAUUACGUCCC | -0.841 ± 0.076 | 0.17 ± 0.11
83 | AUCAAGCAAUAUUACGUUAU | -2.29 ± 0.1 | -0.69 ± 0.09
84 | AUCAAGCAAUAUUACGUUCU | -0.858 ± 0.092 | -0.459 ± 0.12
85 | AUCCAGCAAUAUUACGAAAC | -2.56 ± 0.11 | -1.47 ± 0.16
86 | AUCCAGCAAUAUUACGACAG | -3.47 ± 0.14 | -1.75 ± 0.19
87 | AUCCAGCAAUAUUACGAGCG | -2.01 ± 0.11 | -1.24 ± 0.12
88 | AUCCAGCAAUAUUACGAGGA | -2.21 ± 0.17 | -1.49 ± 0.17
89 | AUCCAGCAAUAUUACGAUAA | -1.56 ± 0.15 | -1.03 ± 0.19
90 | AUCCAGCAAUAUUACGAUUU | -0.0954 ± 0.061 | 0.488 ± 0.081
91 | AUCCAGCAAUAUUACGCCAG | -0.923 ± 0.44 | -2.6 ± 0.48
92 | AUCCAGCAAUAUUACGCCAU | -3.28 ± 0.21 | -1.27 ± 0.14
93 | AUCCAGCAAUAUUACGCCGC | -4.25 ± 0.46 | -2.58 ± 0.38
94 | AUCCAGCAAUAUUACGCCGG | -3.51 ± 0.24 | -2.36 ± 0.41
95 | AUCCAGCAAUAUUACGCCUC | -1.53 ± 0.089 | -1.06 ± 0.14
96 | AUCCAGCAAUAUUACGCGUC | -3.24 ± 0.12 | -1.3 ± 0.13
97 | AUCCAGCAAUAUUACGCUCC | -0.802 ± 0.12 | 0.304 ± 0.2
